{"source": "patent US20050004351A1", "test_in_all_cases": "competitive ELISA", "key": {"[1]": {"target": "affinity purified β2GPI-dependent antiphospholipid antibody from patient 7101"}, "[2]": {"target": "affinity purified β2GPI-dependent antiphospholipid antibody from patient 7015"}, "[3]": {"target": "affinity purified β2GPI-dependent antiphospholipid antibody from patient 6501"}, "[4]": {"target": "affinity purified β2GPI-dependent antiphospholipid antibody from patient 7104"}, "[5]": {"target": "affinity purified β2GPI-dependent antiphospholipid antibody from patient 7008"}, "[6]": {"target": "affinity purified β2GPI-dependent antiphospholipid antibody from patient 6632"}, "[7]": {"target": "affinity purified β2GPI-dependent antiphospholipid antibody from patient 6626"}, "[8]": {"target": "affinity purified β2GPI-dependent antiphospholipid antibody from patient 6644"}, "[9]": {"target": "affinity purified β2GPI-dependent antiphospholipid antibody from patient 6509"}, "[10]": {"target": "affinity purified β2GPI-dependent antiphospholipid antibody from patient 6701"}, "[11]": {"target": "affinity purified β2GPI-dependent antiphospholipid antibody from patient 6641"}, "[12]": {"target": "affinity purified β2GPI-dependent antiphospholipid antibody from patient 6203"}, "[13]": {"target": "affinity purified β2GPI-dependent antiphospholipid antibody from patient 6652"}}, "data": [{"binder": "recombinant human β2GPI domain 5, GlyHis6 (protein) GRASCKLPVKKATVVYQGERVKIQEKFKNGMLHGDKVSFFCKNKEKKCSYTEDAQCIDGTIEVPKCFKEHSSLAFWKTDASDVKPCGHHHHHH", "values": [{"measurement": "Max inhibition", "setting": "[1]", "value": 5, "unit": "%"}, {"measurement": "Max inhibition", "setting": "[2]", "value": 10, "unit": "%"}, {"measurement": "Max inhibition", "setting": "[3]", "value": 10, "unit": "%"}, {"measurement": "Max inhibition", "setting": "[4]", "value": 0, "unit": "%"}, {"measurement": "Max inhibition", "setting": "[5]", "value": 20, "unit": "%"}, {"measurement": "Max inhibition", "setting": "[6]", "value": 10, "unit": "%"}, {"measurement": "Max inhibition", "setting": "[7]", "value": 10, "unit": "%"}, {"measurement": "Max inhibition", "setting": "[8]", "value": 10, "unit": "%"}, {"measurement": "Max inhibition", "setting": "[9]", "value": 10, "unit": "%"}, {"measurement": "Max inhibition", "setting": "[10]", "value": 10, "unit": "%"}, {"measurement": "Max inhibition", "setting": "[11]", "value": 10, "unit": "%"}, {"measurement": "Max inhibition", "setting": "[12]", "value": 5, "unit": "%"}, {"measurement": "Max inhibition", "setting": "[13]", "value": 15, "unit": "%"}]}]}
